Test: soluble on expression in E. coli; label from the status in PepcDB or PDB records

Sequence	soluble on expression in E. coli
KVKFTEEEDLKLQQLVMRYGAKDWIRISQLMITRNPRQCRERWNNYINPALRTDPWSPEEDMLLDQKYAEYGPKWNKISKFLKNRSDNNIRNRWMMIARHRAKHQKS	soluble
KVVFAKEQPAHREVQAEAGASATLSCEVAQAQTEVTWYKDGKKLSSSSKVRVEAVGCTRRLVVQQAGQAEAGEYSCEAGGQQLSFRLQVAGQCFG	soluble
LAEGEEQIVARDGNSWLVDGVTPITDVMRSFAIEEFPQQQNYETIAGFMMYMLRKIPRRTDSVVYAGYKFEVVDIDNYKVDQLLVSRVE	not soluble
LAIAAIRNLLIKNDIEILAELTEGGSAVQRVETLKPDIVIIDVDIPGVNGIQVLETLRKRQYSGIIIIVSAKNDHFYGKHCADAGANGFVSKKEGMNNIIAAIEAAKNGYCYFPFSLNRFVGSLTSDQQKLDSLSKQEISVMRYILDGKDNNDIAEKMFISNKTVSTYKSRLMEKLECKSLMDLYTFAQ	not soluble
LATMKDVARLAGVSTSTVSHVINKDRFVSEAITAKVEAAIKELNYAPSALARSLKLNQTHTIGMLITASTNPFYSELVRGVERSCFERGYSLVLCNTEGDEQRMNRNLETLMQKRVDGLLLLCTETHQPSREIMQRYPTVPTVMMDWAPFDGDSDLIQDNSLLGGDLATQYLIDKGHTRIACITGPLDKTPARLRLEGYRAAMKRAGLNIPDGYEVTGDFEFNGGFDAMRQLLSHPLRPQAVFTGNDAMAVGVYQALYQAELQVPQDIAVIGYDDIELASFMTPPLTTIHQPKDELGELAIDVLIHRITQPTLQQQRLQLTPILMERGSA	soluble
LDIQMTQSPSSLSASLGERVSLTCRASQEISGYLYWLQQKPDGTIKRLIYAGSTLDSGVPKRFSGSRSGSDYSLTISSLESEDFADYYCLQYASYPRTFGGGTKVEIKRTVAAPSVFIFPPSDEQLKSGTASVVCLLNNFYPREAKVQWKVDNALQSGNSQESVTEQDSKDSTYSLSSTLTLSKADYEKHKVYACEVTHQGLSSPVTKSFNRGECGAGA	soluble
LFGVTSELSKDGRERIYRVEGQLFYASVEDFMAAFDFREALDRVVIDVSRAHIWDISSVQALDMAVLKFRREGAEVRIVGMNEASETMVDRLAIHDKPGAMDRLVAH	not soluble
LHIDTEWRSDFKWDRLAEHISDLSGKYVLDIGCGSGYHLWRMRGAGAKFVVGIDPTQLFLMQFNAIKHFIDDSPVHLLPLGVEQLPELKAFDTVFAMGVLYHRRSPIDFLYQLKAQLVKGGELVLETLIVDG	not soluble
LIELIQYTPTTDTVRPEPILIVPAWIMKYYILDLSPENSMVKFLVDQGYTVFMISWRNPSAEDRDLGLDDYRKMGVVDAIGAVQGIVPDQKIHGVGYCLGGTLLSISAATMGRDGGDPFASLSYLASQIDFTEPGELQLFINESQLTFLEDMMWDHGYLDTTQMSGAFQMIGSADLVWSRSLHSYLMGDEPAMFDLLAWNADGTRMPYRMHSEYLRSLYLNNELTEGAFVVEGRPISVTDIRVPVFSVGTVKDHVAPWPSVYKMHLYLDTDLTFVLTSGGHN	not soluble
LINQAEVDIYDIPVALITEQYMAYIHTMQELQLDVASEYLVMAATLLQIKSKMLLPKQEEIFDETFEYEEEDPREELMFRLIEYRRYKEAAQELKEKEGERSQVHTRLPDNLDDYLTEEERQRQSIQGVTLFDMLAAYQKLLKRRAYSRPRTSTVKVEEYSIDERMTDILMDLEKCNGKCRFQDLFV	not soluble
LKDVLNILLMDEISKLKDFLSNLDYIKPKVNIEEEIIEIRKEDIINALKLFKGKYEIEVDKIPKAVYVYLVKKNILFLYPQRGTLKPQSFLVWNAIKRVL	soluble
LKLPDMRDVVGQPEARFAAEVAAAGGHHMLMIGPPGSGKSMIAERIPSLLPELSPQQMIEATAVHSVVGRTFSGPVSRAPFISPHHNVSKAALLGGGSGSPLPGAISLAHHGVLFLDEVSEIPASILDSLRTPLEYGSIRIIRSRHDVTFPAQFQLILAANPCRCG	not soluble
LKRDFIILGNGPRLQNSTYQCKHCDSKLQSTAELTSHLNIHNEEFQKRAKRQERRKQLLSKQKYADGAFADFKQE	soluble
LNHIYNVAFWAEEIGKIVGLDEKRLAKLYLAGLLHDIGKVYIDERILNKEGRLTLQEYQEMKKHVDYSYNMVKDLMIWDIEDDVALWVVQHHEKFDGSGYPFGLKEEEITPEGRILKIADTLDA	soluble
LNKTLFLGYAFLLTMATTSDKLASRSKLPDGPTGSSEEEEEFLEIPPFNKQYTESQLRAGAGYILEDFNEAQCNTAYQCLLIADQHCRTRKYFLCLASGIPCVSHVWVHDSCHANQLQNYRNYLLPAGYSLEEQRILDWQPRENPFQNLKVLLVSDQQQNFLELWSEILMTGGAASVKQHHSSAHNKDIALGVFDVVVTDPSCPASVLKCAEALQLPVVSQEWVIQCLIVGERIGFKQHPKYKHDYVSH	soluble
LNNLEELKRDIIEQFKEKNALDEGIVVMASGGKDSSTAIALAKDLGLNIEYLIHFYHRWSWDVSKKMVEKLSKKFDIPVIFYNITDELLKRTKGAKGSSICRICKNIMKDKAVDISKEKGIRIIMTGDSALEKVSGAVMNYLRDVYGEVVYNKMELTPVPQKYSKGKDKEVLFFRPLIRLACEDVLKLMDYYNIEIERAHE	not soluble
LRSNIDLFYTPGEILYGKRETQQMPEVGQRLRVGGMVMPGSVQRDPNSLKVTFTIYDAEGSVDVSYEGILPDLFREGQGVVVQGELEKGNHILAKEVLAKHDENYTPPEVEKAMEANHRRPASVYKDPASHHHHHH	soluble
LSIPEDYQARLQPNRVEGSYPLVRMEFTGATVDAPLMSQISRKYNIDVSILSSDLDYAGGVKFGMMVAELFGNEQDDSAAIEYLREHNVKVEVLGYVL	soluble
LSLQSEIDSLCAVSHELLHLGLDGEPIYSDRFRQLNTDVYHRCEHLFGSHGRTLEEEASLCIALLTGYNATIYNHGDKEDKIQSVLNRSWDLLDTLPVSLLKCRLLVACYAEVFD	not soluble
LTKRVQEAQAMTEGERRKLSSVLAYMTDGVIATDRRGKVILINTPAEKMLRVKHESANGRSIIDVLDIGDTYQFEDLMEVDGSLTMDRSTLDKPYVLRANFSVIQRETGFNNGVIAVLHDIT	not soluble
LTLGNTTSSVILTNYMDTQYYGEIGIGTPPQTFKVVFDTGSSNVWVPSSKCSRLYTACVYHKLFDASDSSSYKHNGTELTLRYSTGTVSGFLSQDIITVGGITVTQMFGEVTEMPALPFMLAEFDGVVGMGFIEQAIGRVTPIFDNIISQGVLKEDVFSFYYNRDSENSQSLGGQIVLGGSDPQHYEGNFHYINLIKTGVWQIQMKGVSVGSSTLLCEDGCLALVDTGASYISGSTSSIEKLMEALGAKKRLFDYVVKCNEGPTLPDISFHLGGKEYTLTSADYVFQESYSSKKLCTLAIHAMDIPPPTGPTWALGATFIRKFYTEFDRRNNRIGFALAR	soluble
LTVLELESQIDVLSRIQFVSRFGSNLVHIEGVKGSGKSWLAQRYLEKWCDDADQVLLMCHPNQSIQQQRGIILKQVVRDPLFNESDSVVDSVGRMLAGEKCNLVLAIDDAHLLSSELLSELWLLVQKAQSAPNWQINILLFAEKGKLTQTLSQMSYGQDNKPVDIDINP	soluble
LWALGNDSVTAKSLTISNFTLTERKTRYELCFLLDAKNSNTVNEPLSELKNCYGKDVSNVFRTITADNGSEFSRLSEMLQGLGIEAYFTHPYSSWERGTNERHNGLIRRFIPKGKAIKDFSEETIKRIQQWLNSLPRRILGYKTPEECFNEEIHNLVNKNISAIA	not soluble
LYAHAVESLRHEITAVLLIAKPEDEVLLRLESPGGVVHGYGLAASQLRRLRERNIPLTVAVDKVAASGGYMMACVADKIVSAPFAVIGSVGVVAEVPNIHRLLKKHDIDVDVMTAGEFKRTVTFMGENTEKGKQKFRQELEETHQLFKQFVSENRPGLDIEKIATGEHWFGRQALALNLIDEISTSDD	not soluble
MAAAPPSADPLDKALIVDVDQWIEQLYECKPLSENQVKTLCEKAKEILEKEPNVQEVRCPVTVCGDVHGQFHDLMELFKMGGKSPDTNYLFMGDYVDRGYYSVETVSLLVCLKIRYKDRVTLLRGNHESRQITQVYGFYDECLRKYGNSNVWKYFTDLFDCFPLTALVDGQIFCLHGGLSPSIDTLDHIRALDRIQEVPHEGPMCDLLWSDPDDRGGWGISPRGAGYTFGQDISETFNHSNGLTLISRAHQLVMEGYNWSHDRNVVTVFSAPNYCYRCGNQAAMVELDDDLKYSFLQFDPAPRRGEPHVTRRTPDYFL	not soluble
MAAAVRSVKGLVAVITGGASGLGLSTAKRLVGQGATAVLLDVPNSEGETEAKKLGGNCIFAPANVTSEKEVQAALTLAKEKFGRIDVAVNCAGIAVAIKTYHEKKNQVHTLEDFQRVINVNLIGTFNVIRLVAGVMGQNEPDQGGQRGVIINTASVAAFEGQVGQAAYSASKGGIVGMTLPIARDLAPIGIRVVTIAPGLFATPLLTTLPDTVRNFLASQVPFPSRLGDPAEYAHLVQMVIENPFLNGEVIRLDGAIRMQP	soluble
MAAGKRDYYEVLGVSRSATAQDIKRAFRKLAMQYHPDRHKGEGETVQKQNEEKFKEVNEAYEVLSDTEKRGMYDRFGHEGLNASGFHETGFNPFDIFNSVFGEGFSFDMDGGSPFDFIFSRGKKSRQNRVVLPYDLEIAVGVDISFFEMTNGCTRTIEYTKRVTCSACDGFGAEGGETGMVSCNSCEGNGFILKNQRSIFGTVQSQMLCQSCGGQGKQAKHKCKTCKGSKYKKVPTTKEIQIPAGIYHGDALVDDHGGNEFGGHVGKLVVHVGVLPSKIFKRVDHNVVANVLVDPMIAITGGKIELPTLEGIKEFNLRAGTKSGEQIVIPGGGIKFTKNFRKKAGDLIIIISYARPSEYSAPELRKLKEFIKPNQEVKQYLEHHHHHH	soluble
MAAHFDLTDLQLLVHIGDWHSLTRGAEKSHLSLPAASTRVKNLEEHFGTQLLYRTSQGVTLTPSGEAMLRHARTVMQQVEQMRGDMQEFARGVKGHVRVLANTTAMTEFMPAVLARYLAAHPDVNVELRERLSYLVVRAVADGSADIGVVAGCAPDQKLQFIPYRKDRLVVVTPAGHRLAAEESVAFADTLADDYVGLSEWSAIHPFLVQAAASLGRTFKFRVEVGNFEAVCRMIESGVGIGVIPESAALRYARNLDIALVGLTDEWAVRELQICVKNLDSLPVFARELVETLVADGDAAG	soluble
MAAIIRTLFKSKKSKKGDEENNEDLAREVSNRRSFRAPSTSSSKSQRRAVARFADDGALPATAAYHTTSAPKLRKGPQSCPGGYRDESDVSYESDKYSQKSNSHRRRDVLHQSMRQNYTIDEGRKPSSRRHHSSKSDFRRRGESSEYGSGDPSPVGQYSSRHSHYEDRIEESENDDFSEKAQFAVIERAQQHYMQKYKESEQKRREEKRKLKDMEKECNDAKNAMFHYMNQLDKVKKERDCYRKELSRCKKQLEAFQNSGYDAFHHLRQPQISNPQQYPPPLSMGSYPYMSQSMNASHHMSSNFMNSAPPSSNTPMTMTSGAGESLINPSDVSFLQNSFLQPTSQGLTGMTPPPGGFKVPTNYGDDDRDEVKDYRSELLIETSRSTKEVDSISPSSSADSQVTLLDHSTIDKENRKPPSRPFSMMSI	not soluble
MAAKFHLKKAKDGQFHFNLHAANGEIILTSELYKAKDSALGGIESVRKNSQRDGAFEVKPANNGKFHFVLKATNGQVVGQSQLYASQANAEAGVQSVKRATPEAGLSDES	not soluble

Reference: the DeepSol protein solubility set
